T1: Escherichia coli 2,3-aminomutase (P39280 protein) (Escherichia coli, UniProt P39280)
T1 sequence (P39280 whole entry, looked up): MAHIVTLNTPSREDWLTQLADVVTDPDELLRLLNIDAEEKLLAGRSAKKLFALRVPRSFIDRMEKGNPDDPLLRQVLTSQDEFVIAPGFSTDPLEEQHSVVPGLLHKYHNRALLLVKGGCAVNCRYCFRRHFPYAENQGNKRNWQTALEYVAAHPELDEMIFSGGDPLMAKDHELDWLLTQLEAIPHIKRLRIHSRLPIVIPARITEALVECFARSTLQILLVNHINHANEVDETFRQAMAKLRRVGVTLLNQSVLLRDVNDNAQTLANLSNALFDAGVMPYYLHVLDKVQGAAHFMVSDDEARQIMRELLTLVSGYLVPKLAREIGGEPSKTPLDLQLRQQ


Tests used:
[1] = target: T2, Clostridial lysine 2,3-aminomutase (Clostridium subterminale, UniProt Q9XBQ8); assay: Lysine 2,3-aminomutase activity, conversion of C-14 L-α-lysine to L-β-lysine (paper electrophoresis); format: biochemical, Clostridium subterminale SB4; details: purified recombinant produced enzyme
T2 construct: made in house; host or cells: E. coli BL21(DE3) with pET-23a(+) (lysine 2,3-aminomutase gene) and pAlter-Ex2 (dnaY gene)
Description: Aerobically grown E. coli cells (1 ml) containing the pET 23a(+) plasmid vector with the Clostridial lysine 2,3-aminomutase gene and the p-Alter-EX2 plasmid vector with the E. coli dnaY gene were used to seed a glass fermentor (Virtis Laboratory Fermentor #233395, Virtis Corporation, Gardiner, N.Y.) containing 15 liters of 2×YT media (240 gm Difco Bactotryptone, 150 gm Bacto yeast extract, […], Difco Laboratories, Detroit, Mich.) and supplemented with 50 μM Fe(II)SO4, 50 μM ZnSO4, 50 μM Na2S, 4 mM sodium thioglycolate, 100 μg/ml ampicillin, and 10 μg/ml tetracycline. The sealed flask was made anaerobic by gentle bubbling of nitrogen gas for 3 hours prior to cell inoculation. Anaerobicity was monitored by the presence of a small quantity of methylene blue (10 mg) which remains colorless in the absence of oxygen. After approximately 14 hours anaerobic culture at 37° C. when the cell density had reached 0.05 OD (optical density) at 600 nm, 0.2% (w/v) D-(+) glucose was added. […]
The supernatant was used to measure L-β-lysine formation according to the procedure of Ballinger et al. Biochemistry 31:10782 (1992). […] The mixture was spotted onto chromatography paper (Whatman #3001917, Whatman, LTD, Maidstone, England), the amino acids separated by electrophoresis and radioactivity measured according to the published procedure. […]

[2] = target: T1, Escherichia coli 2,3-aminomutase (P39280 protein); assay: Lysine 2,3-aminomutase activity of E. coli P39280 protein, HPLC of PITC derivatives; format: biochemical; details: L-lysine 44 mM, 37° C. for 60 min
Description: Lysine 2,3-aminomutase activity was measured with the Escherichia coli 2,3-aminomutase (P39280 protein) as described for alanine 2,3-aminomutase (see Example 5) with the following exceptions: P39280 protein, (25.4 μM-subunit); S-(5′-adenosyl)-L-methionine 90 μM; sodium hydrosulfite 2.3 mM; L-lysine 44 mM. The reaction was conducted at 37° C. for 60 min. The HPLC gradient established was 0-10% Buffer B in 35 min, 10-30% Buffer B in 35 min, 30-55% Buffer B in 35 min, and 55-100% Buffer B in 20 min. The PITC derivative of L-lysine eluted at a retention time of 101 min whereas the PITC derivative of β-lysine eluted at 95.6 min.

Molecule	enzyme activity [1]	2,3-aminomutase activity toward L-lysine [2]
purified recombinant produced lysine 2,3-aminomutase: Clostridial lysine 2,3-aminomutase expressed in E. coli and purified (protein, UniProt Q9XBQ8 1-416, looked up) L-lysine 2,3-aminomutase: MINRRYELFKDVSDADWNDWRWQVRNRIETVEELKKYIPLTKEEEEGVAQCVKSLRMAITPYYLSLIDPNDPNDPVRKQAIPTALELNKAAADLEDPLHEDTDSPVPGLTHRYPDRVLLLITDMCSMYCRHCTRRRFAGQSDDSMPMERIDKAIDYIRNTPQVRDVLLSGGDALLVSDETLEYIIAKLREIPHVEIVRIGSRTPVVLPQRITPELVNMLKKYHPVWLNTHFNHPNEITEESTRACQLLADAGVPLGNQSVLLRGVNDCVHVMKELVNKLVKIRVRPYYIYQCDLSLGLEHFRTPVSKGIEIIEGLRGHTSGYCVPTFVVDAPGGGGKTPVMPNYVISQSHDKVILRNFEGVITTYSEPINYTPGCNCDVCTGKKKVHKVGVAGLLNGEGMALEPVGLERNKRHVQE	34.5±1.6 μmoles lysine min^1 mg^−1 protein	–
P39280-protein: E. coli polypeptide, SEQ ID NO: 4, distant homologue of lysine 2,3-aminomutase from Cl. subterminale (protein, listed as Escherichia coli) MAHIVTLNTPSREDWLTQLADVVTDPDELLRLLNIDAEEKLLAGRSAKKLFALRVPRSFIDRMEKGNPDDPLLRQVLTSQDEFVIAPGFSTDPLEEQHSVVPGLLHKYHNRALLLVKGGCAVNCRYCFRRHFPYAENQGNKRNWQTALEYVAAHPELDEMIFSGGDPLMAKDHELDWLLTQLEAIPHIKRLRIHSRLPIVIPARITEALVECFARSTLQILLVNHINHANEVDETFRQAMAKLRRVGVTLLNQSVLLRDVNDNAQTLANLSNALFDAGVMPYYLHVLDKVQGAAHFMVSDDEARQIMRELLTLVSGYLVPKLAREIGGEPSKTPLDLQLRQQ	–	does display 2,3-aminomutase activity
